According to the nanobody polyreactivity screen of Harvey et al. (2022):

Test: yeast display, Sf9 membrane polyspecificity reagent, FACS + sequencing; frameworks hold sequencing errors
In short: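 Using colony PCR, genes from sorted yeast display clones were amplified, then sequenced on MiSeq at 2 × 250 and filtered by CDR length. The clones had been stained with 10% biotinylated, detergent-solubilized Sf9 membrane reagent for 1 hour at 4 °C and sorted by FACS into low and high (top ~1%) gates on anti-HA and streptavidin fluorescence. Polyreactivity labels come from the gate of origin.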

Sequence	polyreactivity (PSR sort gate)
QFQLVESVGGLFQAGGSLRLSCDASGIIFIGNAMGWYRQAPGKERELVAAISRRGGRTYYADSVKGRFTISRDNAKNTVYLQMNSLKPEDTAVYYCAKRYYSYGKSGYYYWGQGTQVTVSS	high polyreactivity
QFQLVESVGGLVQAGGSLRLSCAASGRTGVNAMGWYRQAPRKERELVAAINNGDSTYYADSVKGRFTISRDNAKNTVYLQMNSLKPEDTAVYYCAARSALYPKYESWGQGTQVTVSS	low polyreactivity
QFQLVESVGGLVQAGGSLRLSCAASGYIFRHYAMGWYRQAPGKERELVAAISGRGGSTYYADSVKGRFTISRDNAKNTVYLQMNSLKPEDTAVYYCAKDRKAVGDFYYWGQGTQVTVSS	high polyreactivity
QFQLVESVGGLVQAGGSLRLTCAASGRIFLNYDMGWYRQEPGKDRELVAAITTGGSTYADSVKGRFTISRDNAKNTVYLQMNSLKAEDTAVYYCANRDRNKRDNWGQGTQVTGSS	low polyreactivity
QFQLVESVRGLFQAGGSLRLSCAASGSIFHPYGMGWYREDPVKERELVAAISSSGGDTYYADSVKGRFTISRDNAKNTVYLQMNSLKPEDTAVYYCATDHLDSYSVPGIGKHDYWGQGTQVTVSS	low polyreactivity
QFQLVESWVGLVQAGGSLRLSCAASGSTFPYYAIGWYRQAPGKERELVASIRKRGGGTYYADSVKGRFTISRDNAKNTVYLQMNSLKPEDTAVYYCAVRVYQFRFTGYDYWGHGTQVTVSS	high polyreactivity
QGKRVESGRGLVQAGGILRLSCAASGRTFYYYAMGWYRQSPGKERELVASITWSGGSTYYADSVKGRFTISRDNAKNTVYLQMNSLKPEDTAVYYCAARFVYYGVDYWGQGTQVTGSS	high polyreactivity
QGLLVQSGGGLVQAGGSLRLSCAASGFTFRFYAMLWYRQAPGNERELVAAISSTGSTNYADSVKARCTISRDNAKNTVYLQKNSLKPEDTAVYYCNTDYYNRYYDWLIWYYYWGQGTQVTVSS	high polyreactivity
QGQHVESGGGLVQAGGSLRLSCAASGLTFWVYAMGWYRQPRGKERELVAVITNGGRTNYADSVKGRFTISRDNAKNTVYLLMNSLKPEDSAVYYCARPNLLSGDYWGQGTQVTVSS	high polyreactivity
QGQHVETGGGLVQAGCTLRLSCAASGFTCGNYAMGWYRQAPGKGRELVAAIDSDGSTDYADAVKGRFTISRDNAKNTVYLQMNSLKPEDTAVYYCAARFDYGPRGCDYWGPGTQVTVSS	low polyreactivity
QGQIVESWGGLVQAGGSLRLSCAASGTFFTYMGWYRQAPGKERELVAAIRNGGSTNYADSVKGRCTISGDNAKNTVYLQMHSLKPEDTAVYYCAARVTYSRGYRGGSRTKYDSWGQGTQVTVSS	low polyreactivity
QGQLVESAGGLVQAGGSLRLSCAAYGRIFGINAMGWYRQAPGKERELVAASTGGGSTYADSVKGRVTISRDNAKNTVYLHMNSLKPEATAVYYCAARKIWSSIAYYYWGQGTQVTVSS	low polyreactivity
QGQLVESGGALVQAGGSLRLSCAASGFILPIYAMAWYRQAPGKEREIVAAITWTGGSTYYADSVKGRFTISRDNAKNTVYLQMISLKPEDTAVYYCNVVSDIRLYYRYAYDYWGQGTQVTVSS	high polyreactivity
QGQLVESGGALVQAGGSLRLSCAASGGTFFYYVMGWYRQAPGQERELVAAITGAGGSTYYADSVKGRFTSSRDNAKNTVYLQMNSLKPEDTAVYYCAADVSFTQSDGRLAEYGYWGQGTQVTVSS	low polyreactivity
QGQLVESGGGEVQAGGSLRLSCAASGFTFGSNAMGWYRPAPGKERELVAAISSTGSTYYADSVKGRFTLSRDNAKNTVYVQMNSLKPEDPAVYYCNADSDTPRYDYWGQGTQVTVSS	low polyreactivity
QGQLVESGGGLGQAGGSLRLSCAASGSIFQPNDMGWYRQAPGKERELVATISTGGTTNYADSVKGRFTISRDNAKNTVYLQMNSLKPDDTAVYYCATDRTFTISNYDYWGQGTQVTVSS	low polyreactivity
QGQLVESGGGLVHAGVSLRLSCAASGSTFQPYAMGWNRQAPGKERELVAAINWSGGGTYYADSVKGRFTISRDNAKNTVYLQMNSLKPVDTAVYYCAAEVYTYWALNTWRYDYWGQGTQVTVSS	high polyreactivity
QGQLVESGGGLVQAGASLRLSCAASGFIFAHYTMGWYRQAPGKARELVAAITRAGGSTFYADSVKGRFTISRDNAKNTVYLQRNSLKPEDTAVYYCNRGNRWNFDSWGQGTQVTVSS	high polyreactivity
QGQLVESGGGLVQAGGILLLSCAASGIIFLYYAMGWYRQAPGKERELVAAITSGGSTYYADSVKGRFTISRDNAKNTVYLQMNSLKPEDTAVYYCNAPYHGREYEWGQGTQVTVSS	high polyreactivity
QGQLVESGGGLVQAGGNLRLSCAASGSIFSDYTMGWYRQAPGKERELVAVITLSAGSTYYADSVKGRFTISRDNAKNTVYLQMNSLKPEDTAVYYCAADGWYYFGSGVFEYDYWGHGTQVTVSS	low polyreactivity
QGQLVESGGGLVQAGGSLRISCAASGRIYRINAMGWYRQAPGKERELVANITSGGGSTYADSVKGRFTISRDNAKNTVYLQMNSRKPEDTAVYYCAARSRIGRYTYDYWGQGTQVTVSS	high polyreactivity
QGQLVESGGGLVQAGGSLRLSCAASAFIFDDNTMGWYRQAPGKERELGAAISYSAGSTYYADSVKGRFTISRDNAKNTVYLQMNSLKPEDTAVYSCAAQHYWVTSYLSSYDYWGQGTQVTLSS	low polyreactivity

Sequence	polyreactivity (PSR sort gate)
QGQLVESGGGLVQAGGSLRLSCAASGFIFRYYTMGWYRQAPGKERELVATITSGGSTYYADSVKGRFTISRDNAKNTVYLQMNSLKPEDTAVYYCNADTLGGKYVYQDRRGFDYWGQGTQVSVSS	high polyreactivity
QGQLVESGGGLVQAGGSLRLSCAASGFIFVVYAMGWYRQAPGKERELVAAITFSGGSTYYADSVKGRFTISRDNAKNTVYLQMISLKPEVTAVYYCAAAEHDREFDSWGHGTQVTVSS	low polyreactivity
QGQLVESGGGLVQAGGSLRLSCAASGFTFQYYAMGWSRQAPGKERELVAAISWSGGRTYYADSVKGRFTISRDNAKNTESLQMNSLKPEDTAVYYCAASYIVYPARYEDEGDYWGQGTQVTVSS	high polyreactivity
QGQLVESGGGLVQAGGSLRLSCAASGGIFLGNAMGWYRQAPGKERELVASITRGGDTSYADSVKGRFTISRDNAKNTVYLQMNCLKPEDTAVYYCNADYYSVVEYDYWGQGTQLTVSS	low polyreactivity
QGQLVESGGGLVQAGGSLRLSCAASGITFGDNAMGWYRQAPGKERELVAAISSGGSTDYADSVKGRFTISRDNAKNTVYLQMNSLKPEDTAVYYCAFDWVSVPEYDYWGQGTQVTVSS	low polyreactivity
QGQLVESGGGLVQAGGSLRLSCAASGITFPGYAMGWSRQAPGKERELVAVIRKSGTSTYYADSVKGRFTISRDNEKNTVYLQMNSLKPEDTAVYYCADGGPSTVDVYWGQGTQVTVSS	low polyreactivity
QGQLVESGGGLVQAGGSLRLSCAASGITFPYYAMGWYRQAPGKERELVADITSGGSTNYADSVKGRFTISRDNAKNTVYLQMNSLKPDDTAVYYCAADWYVIYDYWGQGTQVTVSS	low polyreactivity
QGQLVESGGGLVQAGGSLRLSCAASGRIFKYNAMGWYRQAPGKEMELVAVITSGGSTYYADSVKGRFTISRDNAKNTVYLQMNSLKPEDTAVYYCAKKYYIVHKFDYWGQGTQVTVSS	low polyreactivity
QGQLVESGGGLVQAGGSLRLSCAASGRIFPYAMGWYRQAPGKERELVAAISRIGGITYYADSVKGRFTISRDNAKNTVYLQMNSLKPEDTAVYYCNARFHPYRWTFDYWGQGTQVTVSS	high polyreactivity
QGQLVESGGGLVQAGGSLRLSCAASGRIFQMYTMGWYRQAPGKERELDAAITSGTSTSYADSVKGRFTISRDNAKNPFYLQMNSLKPEDTAVYYCNKGSVCYSSVFVPYESDYWGQGTQVTVSS	low polyreactivity
QGQLVESGGGLVQAGGSLRLSCAASGRIFYIYFMGWYRQAPGKEREFVAAISQSGGSTYYADSVKGRFTISRDNAKNTVYLQMNSLKPEDTAVYYCAADRINYQHGYGYWGHGTQVTVSS	low polyreactivity
QGQLVESGGGLVQAGGSLRLSCAASGRTFQYYAMGWYRQATGKERELVAAITTVGSTKYADSVKGRFTISRDNAKNTVYLQMNSVKPEDTAVYYCAAGYRTRSGHRVPYSDYSWGQGTQVTVSS	high polyreactivity
QGQLVESGGGLVQAGGSLRLSCAASGRTFTINAMGWYRQATGKERELHAAISSDGNTNYADSVKGRFTISRDNAKNTVYLQMNSLKPEDTAVYYCAADWVRYSYRHGSYRVYYWGQGTQVTVSS	high polyreactivity
QGQLVESGGGLVQAGGSLRLSCAASGRTFYRYAMGWYRQAPGNERELVASMNRGGSTYYADSVKGRFTFSRDNAKNTVYLQMNSLKPEDTAVYYCACYCYCYRGQGTQVTVSS	low polyreactivity
QGQLVESGGGLVQAGGSLRLSCAASGRTLVIKVMGWYRKAPGKERELVAAISFRSGNTYYADSVKGRFTISRDNAKITVYLQMNSLKPEDTAVYDCAAYTYRTSTTSSYYNWGQGTQVTVSS	high polyreactivity
QGQLVESGGGLVQAGGSLRLSCAASGSIFDLNAMGWYRQAPGKERELVAAISTGGGTYYADSVKGRFTISRDTAKNTVYLQMNRLKPEDTAVYYCNRVTRWTYNYWGQGTQVTVSS	high polyreactivity
QGQLVESGGGLVQAGGSLRLSCAASGSIFGPYVMGWYRPAPGTERELVASITSSGGSTYYADSVKGRFTISRDNAKNTVYLQMNSLKPEDTAVYYCAATRSFSGGYGYVSYDYWGQGTQVTVSS	high polyreactivity
QGQLVESGGGLVQAGGSLRLSCAASGSIFRSYAMGWYRQAPGKERELVASISRRGGSTYYADSVKGRFTISRDNAKNTVYLQMNSLKPEDTAVYYCAAVRYNSRVSTSPSEMYYWGQGTQVTVSS	low polyreactivity
QGQLVESGGGLVQAGGSLRLSCAASGSISGNYAMAWYRQAPGKERELVASIRYTGARTYYADSVKWRFTISRDNAKNTVYLQMNSLKPEDTAVYYCAADVKRDRVWGGDYWGQGTQVTVSS	low polyreactivity
QGQLVESGGGLVQAGGSLRLSCAASGSISTYYAMGWYRQAPGKERELVAAISSSGVRTYYADSVKGRFTIARDNAKNTVYLQMNSLKREDTAVSYCAAEVYYLYFYIMDYWGQGTQVTVSS	high polyreactivity
QGQLVESGGGLVQAGGSLRLSCAASGSSLPYYAMGSYRQAPGKERELVATITDGTDTYYADSVKARFTISRDNAKNTVFLQMNSLKTDDSAVYYCNAYGYVYFLHEDYWGQGTQVTVSS	low polyreactivity
